# In PMC12212138:
# pKd: −log10 of the molar value.
# Tests used:
# [1] = biological target: T1, PARP4 BRCT-WGR-CAT WT (human) (UniProt Q9UKK3); test: EMSA; conditions: FP: 50 mM Tris pH 7.5, 50 mM NaCl, 1 mM MgCl2, 0.05% NP40, 2 mM DTT, 5% glycerol, 25 ug/ml BSA, room temp 30 min; EMSA: 50 mM Tris pH 7.5, 50 mM NaCl, 4% …
# T1 sequence: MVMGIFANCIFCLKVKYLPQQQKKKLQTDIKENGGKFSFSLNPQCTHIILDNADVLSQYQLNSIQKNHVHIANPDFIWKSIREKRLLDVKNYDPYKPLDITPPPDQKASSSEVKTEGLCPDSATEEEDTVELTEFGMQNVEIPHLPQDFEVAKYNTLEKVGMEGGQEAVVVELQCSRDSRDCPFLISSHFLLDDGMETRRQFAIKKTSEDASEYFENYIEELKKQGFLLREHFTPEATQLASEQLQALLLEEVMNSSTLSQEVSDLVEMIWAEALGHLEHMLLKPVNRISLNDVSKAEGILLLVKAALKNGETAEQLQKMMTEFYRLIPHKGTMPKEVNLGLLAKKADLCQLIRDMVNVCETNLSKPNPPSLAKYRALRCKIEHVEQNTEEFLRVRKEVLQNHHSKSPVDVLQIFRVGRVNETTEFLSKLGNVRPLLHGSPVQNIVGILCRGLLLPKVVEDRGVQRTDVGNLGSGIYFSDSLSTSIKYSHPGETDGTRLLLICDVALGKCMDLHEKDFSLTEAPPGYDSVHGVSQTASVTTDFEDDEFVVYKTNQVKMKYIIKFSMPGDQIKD
# PARP4 WGR-CAT (human) = biological target: T2, PARP4 WGR-CAT (human) (UniProt Q9UKK3); test: FP; conditions: FP: 50 mM Tris pH 7.5, 50 mM NaCl, 1 mM MgCl2, 0.05% NP40, 2 mM DTT, 5% glycerol, 25 ug/ml BSA, room temp 30 min; EMSA: 50 mM Tris pH 7.5, 50 mM NaCl, 4% …
# T2 sequence: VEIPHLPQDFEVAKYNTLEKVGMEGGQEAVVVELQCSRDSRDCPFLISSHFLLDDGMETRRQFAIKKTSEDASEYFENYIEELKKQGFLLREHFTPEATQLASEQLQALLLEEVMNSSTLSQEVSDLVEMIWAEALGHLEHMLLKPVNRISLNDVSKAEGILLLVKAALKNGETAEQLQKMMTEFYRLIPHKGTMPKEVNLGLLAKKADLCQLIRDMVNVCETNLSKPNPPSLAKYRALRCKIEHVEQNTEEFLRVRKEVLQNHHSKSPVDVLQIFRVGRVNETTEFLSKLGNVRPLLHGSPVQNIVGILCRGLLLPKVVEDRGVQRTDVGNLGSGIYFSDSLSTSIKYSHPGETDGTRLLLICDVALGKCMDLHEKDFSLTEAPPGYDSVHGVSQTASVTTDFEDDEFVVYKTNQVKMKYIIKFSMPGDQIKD
Sequence,pKd [1],pKd (PARP4 WGR-CAT (human))
CCGCGGGC / GCUCGCGG [Probe 4],5.15,–
GGCUGGCUUUAGCUCAGCGGUUACUUCGCGUGUCAUCAAACCACCUCUCUGGGUUGUUCGAGACCCGCGGGCGCUCUCCAGCCCUCUU [vtRNA1-3],–,4.03
CCGCGGGC / GCUCAGCGG [Probe 3],4.96,–
